Publication PMC4652282, “An Efficient Site-Specific Method for Irreversible Covalent Labeling of Proteins with a Fluorophore”
Where a chain is given by its changes, count along the chain named.

Columns and labels:
Details in all cases: protein: recombinant; tags: C-terminal SS-his6-GG-ald6 (LCTPSR); chain copies: 2; blunt, one internal G/T mismatch
[1] = target: T1, EcMutS-his6/ald6, unlabeled (Escherichia coli, UniProt P23909 1-853); assay: SPR; kon 5.29e5 M-1 s-1; koff 6.10e-4 s-1; koff with ATP 0.53 s-1; SPR at 25 C, buffer not shown; EMSA: 25 mM Hepes (GS Buffer, rest not shown), on ice 15 min
T1 sequence: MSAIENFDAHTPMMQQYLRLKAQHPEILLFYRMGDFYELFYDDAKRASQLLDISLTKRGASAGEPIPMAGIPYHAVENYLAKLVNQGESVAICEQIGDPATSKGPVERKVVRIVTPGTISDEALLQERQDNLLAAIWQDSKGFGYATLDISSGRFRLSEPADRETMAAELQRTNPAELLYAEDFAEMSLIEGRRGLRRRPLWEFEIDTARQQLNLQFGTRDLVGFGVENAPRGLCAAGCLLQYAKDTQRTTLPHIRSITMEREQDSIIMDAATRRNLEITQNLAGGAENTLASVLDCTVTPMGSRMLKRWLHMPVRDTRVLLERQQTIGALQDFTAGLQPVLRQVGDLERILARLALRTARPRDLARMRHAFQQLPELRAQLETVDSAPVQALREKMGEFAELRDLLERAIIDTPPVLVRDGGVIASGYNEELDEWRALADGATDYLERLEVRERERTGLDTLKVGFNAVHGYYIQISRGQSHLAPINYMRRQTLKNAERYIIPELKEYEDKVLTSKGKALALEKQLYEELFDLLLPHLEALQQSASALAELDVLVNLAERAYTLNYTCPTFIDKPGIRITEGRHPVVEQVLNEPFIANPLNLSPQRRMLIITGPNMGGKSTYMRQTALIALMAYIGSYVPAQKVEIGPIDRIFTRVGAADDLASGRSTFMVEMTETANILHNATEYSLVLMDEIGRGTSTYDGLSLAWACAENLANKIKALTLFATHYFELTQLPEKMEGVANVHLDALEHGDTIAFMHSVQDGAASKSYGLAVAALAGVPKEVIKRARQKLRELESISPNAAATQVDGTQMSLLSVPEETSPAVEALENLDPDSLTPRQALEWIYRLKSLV

[2] = target: T2, EcMutS-his6/ald6(D835R,R840E), unlabeled (Escherichia coli, UniProt P23909 1-853, D835R;R840E); assay: SPR; kon 9.48e5 M-1 s-1; koff 33.02e-4 s-1; koff with ATP 0.48 s-1; SPR at 25 C, buffer not shown; EMSA: 25 mM Hepes (GS Buffer, rest not shown), on ice 15 min
T2 sequence: T1 sequence with D835R, R840E

[3] = target: T3, EcMutS-his6/ald6, AF647-labeled (Escherichia coli, UniProt P23909 1-853); assay: SPR; kon 3.44e5 M-1 s-1; koff 8.93e-4 s-1; koff with ATP 0.26 s-1; SPR at 25 C, buffer not shown; EMSA: 25 mM Hepes (GS Buffer, rest not shown), on ice 15 min
T3 sequence: T1 sequence

[4] = target: T4, EcMutS-his6/ald6(D835R,R840E), AF555-labeled (Escherichia coli, UniProt P23909 1-853, D835R;R840E); assay: SPR; kon 4.37e5 M-1 s-1; koff 24.48e-4 s-1; koff with ATP 0.45 s-1; SPR at 25 C, buffer not shown; EMSA: 25 mM Hepes (GS Buffer, rest not shown), on ice 15 min
T4 sequence: T1 sequence with D835R, R840E

B1: G/T mismatch DNA (SPR) (dsDNA)
DNA 1: AACTATAGGGCGAATTGGGTACCGCTGAATTGCACCGAGCTTGATCCTCGATGATCCTAAGCTAAGCTTCAGCTCCAGCTTT
DNA 2: AAAGCTGGAGCTGAAGCTTAGCTTAGGATCATCGAGGATCGAGCTCGGTGCAATTCAGCGGTACCCAATTCGCCCTATAGTT
Kd [1]: 1.25 ± 0.53 nM | Kd [2]: 3.85 ± 1.78 nM | Kd [3]: 2.63 ± 0.49 nM | Kd [4]: 5.75 ± 1.51 nM
